Measured values as given in article PMC9943653.

Key:
[1] = system: Gal4 (1-147); assay: ensemble FRET; details: EMSA: 10 mM Tris-HCl pH 8, 130 mM NaCl, 10% glycerol, 0.0075% Tween-20, 0.5 nM DNA or nucleosome, smFRET: same Tris/NaCl/glycerol with 0.5% Tween-20, 0.1 mg/ml …
[2] = system: Gal4 (1-147); assay: single-molecule FRET; details: EMSA: 10 mM Tris-HCl pH 8, 130 mM NaCl, 10% glycerol, 0.0075% Tween-20, 0.5 nM DNA or nucleosome, smFRET: same Tris/NaCl/glycerol with 0.5% Tween-20, 0.1 mg/ml …

P26 nucleosome D17
K half ([1]; amino-C6-dT at nt 17 of strand 1): 9 nM

P26 nucleosome, 222 bp
Kd ([2]; kon eff 0.11 nM-1 s-1, koff 0.66 s-1): 6.1 nM

P26 nucleosome, full Gal4 site (D1)
K half [1]: 4.3 nM

P28 nucleosome, full Gal4 site (called P29 once in text)
K half ([1]; text prints P29): 1.7 nM

P31 nucleosome, 222 bp
Kd ([2]; kon eff 0.0008 nM-1 s-1, koff 0.83 s-1): 980 nM

P31 nucleosome, full Gal4 site
K half [1]: 500 nM

P33 nucleosome, full Gal4 site
K half [1]: 240 nM

P36 nucleosome, 222 bp
Kd ([2]; kon eff 0.004 nM-1 s-1, koff 1.03 s-1): 260 nM

P36 nucleosome, full Gal4 site
K half [1]: 290 nM
